Reference: patent US20210231678A1, “ALLERGY ANTIGEN AND EPITOPE THEREOF” (FUJITA ACADEMY, priority 2020, published 2021)

Tested on: IgE antibody in the serum of a latex-allergic patient
Assay: Immunoblotting of two-dimensional electrophoresis gels of latex proteins with patient serum
Type: binding, human
Settings: immunoblot of 2D electrophoresis gel of latex proteins, compared with serum of non-latex-allergic subject
Procedure: Identification of antigens by immunoblotting was carried out by taking all the steps up to the step of “Second-dimensional SDS-PAGE” as described above in Example 1, followed by the steps of “Transfer to membrane”, “Immunoblotting” and “Analysis” as described below.
Transfer system: XCell SureLock Mini-Cell and XCell II Blot Module (produced by Life Technologies) Transfer buffer: NuPAGE Transfer Buffer (X20) (produced by Life Technologies), used in a form diluted 200-fold with milliQ water.
Immunoblotting of the membrane was carried out using, as a primary antibody, a serum sample from a patient with a latex allergy or a serum sample from a non-latex-allergic subject.
(1) The transferred membrane was shaken in a 5% skim milk/PBST solution (a PBS buffer containing 0.1% Tween 20 nonionic surfactant) at room temperature for one hour. […]
The immunoblots obtained with the serum from the latex-allergic patient were compared with those obtained with the control serum from the non-latex-allergic subject. For protein present in latex, in immunoblotting using the serum from the latex-allergic patient, 2 spots were detected, which are different from the spots detected when the serum of the non-latex-allergic subject was used and different from those of the known latex allergen proteins. […]

B1: Hevamine-A (protein, listed as Hevea brasiliensis)
chain: MAKRTQAILLLLLAISLIMSSSHVDGGGIAIYWGQNGNEGTLTQTCSTRKYSYVNIAFLNKFGNGQTPQINLAGHCNPAAGGCTIVSNGIRSCQIQGIKVMLSLGGGIGSYTLASQADAKNVADYLWNNFLGGKSSSRPLGDAVLDGIDFDIEHGSTLYWDDLARYLSAYSKQGKKVYLTAAPQCPFPDRYLGTALNTGLFDYVWVQFYNNPPCQYSSGNINNIINSWNRWTTSINAGKIFLGLPAAPEAAGSGYVPPDVLISRILPEIKKSPKYGGVMLWSKFYDDKNGYSSSILDSVLFLHSEECMTVL
specific binding to IgE antibodies from allergic patients: specifically bind to IgE antibodies from allergic patients

B2: Citrate-binding protein (protein, listed as Hevea brasiliensis)
chain: MKMKRSPYCFCCSFALLLLVSFLKDRHFCSADPTDGFTEVPLTEDNFVIQKPYDKPLNDRYSYKNGIRRLWVYENDKPFKVGSPTRPRTEIRIKGHDYSSGVWQFEGQVHVPEGTSGVTVMQVFGAVNKATALQLRVYNGDLKSYKSNSVATDIYNKWLRVNVIHKVGKGEITVFINGQQKLVVNDDGPAEHYFKCGVYAAPDGSSNYMESRWKNIKLYKSDNKLEGCNNNHGTWLVQ
specific binding to IgE antibodies from allergic patients: specifically bind to IgE antibodies from allergic patients
